Legend:
Af-PARP1 S241Q [1] = molecular target: T1, Af-PARP1 S241Q (Aspergillus fumigatus, UniProt B0Y3N8 1-23+35-688, S252Q;internal_change); experiment: EMSA; EMSA: 50 mM HEPES pH 8, 100 mM NaCl, 10% glycerol, 10 mM DTT, 45 min at 4 °C, 7% native PAGE 0.5x TBE; plasmid EMSA: 20 mM Tris-HCl pH 8, 30 mM NaCl, 1 mM EDTA, 1 mM DTT; CD: 20 mM HEPES pH 8, 100 mM NaCl, 0.5 mM TCEP, 2% glycerol; conditions: protein: recombinant; tags: His; described as blunt duplex; printed strands not exactly complementary
Af-PARP1 K60A = Af-PARP1 K60A (Aspergillus fumigatus, UniProt B0Y3N8 1-23+35-688, K71A;internal_change); experiment: as above; conditions: protein: recombinant; tags: His; dumbbell of two hairpins, nick
Af-PARP1 S14A = Af-PARP1 S14A (Aspergillus fumigatus, UniProt B0Y3N8 1-23+35-688, S14A;internal_change); experiment: as above; conditions: protein: recombinant; tags: His; dumbbell of two hairpins, nick
Af-PARP1 Q22A = Af-PARP1 Q22A (Aspergillus fumigatus, UniProt B0Y3N8 1-23+35-688, Q22A;internal_change); experiment: as above; conditions: protein: recombinant; tags: His; dumbbell of two hairpins, nick
Af-PARP1 E53A = Af-PARP1 E53A (Aspergillus fumigatus, UniProt B0Y3N8 1-23+35-688, E64A;internal_change); experiment: as above; conditions: protein: recombinant; tags: His; dumbbell of two hairpins, nick
Af-PARP1 K52/60A = Af-PARP1 K52/60A (Aspergillus fumigatus, UniProt B0Y3N8 1-23+35-688, K63A;K71A;internal_change); experiment: as above; conditions: protein: recombinant; tags: His; dumbbell of two hairpins, nick
Af-PARP1 K56A = Af-PARP1 K56A (Aspergillus fumigatus, UniProt B0Y3N8 1-23+35-688, K67A;internal_change); experiment: as above; conditions: protein: recombinant; tags: His; dumbbell of two hairpins, nick
Af-PARP1 K52A = Af-PARP1 K52A (Aspergillus fumigatus, UniProt B0Y3N8 1-23+35-688, K63A;internal_change); experiment: as above; conditions: protein: recombinant; tags: His; dumbbell of two hairpins, nick
Af-PARP1 S241Q [2] = molecular target: T1, Af-PARP1 S241Q; experiment: EMSA; mutation did not restore binding; EMSA: 50 mM HEPES pH 8, 100 mM NaCl, 10% glycerol, 10 mM DTT, 45 min at 4 °C, 7% native PAGE 0.5x TBE; plasmid EMSA: 20 mM Tris-HCl pH 8, 30 mM NaCl, 1 mM EDTA, 1 mM DTT; CD: 20 mM HEPES pH 8, 100 mM NaCl, 0.5 mM TCEP, 2% glycerol; conditions: protein: recombinant; tags: His; hairpin, blunt end

B1: DNA-16/17 (5'P duplex) (dsDNA)
DNA 1: GACGACCCGGACACA
DNA 2: TGTGCTCCGGGTCGTC
modifications: 5'-phosphate on DNA-16
binding result (Af-PARP1 S241Q [1]): binds

B2: DNA-1 (5'P nick) (structured_DNA)
DNA: CGGTCGATCGTAAGATCGACCGGCGCTGGAGCTTGCTCCAGCGC
modifications: 5'-phosphate
binding result (Af-PARP1 K60A): binds
binding result (Af-PARP1 S14A): binds
binding result (Af-PARP1 Q22A): binds
binding result (Af-PARP1 E53A): binds
binding result (Af-PARP1 K52/60A): binds
binding result (Af-PARP1 K56A): binds
binding result (Af-PARP1 K52A): binds

B3: DNA-5 (5'P blunt) (structured_DNA)
DNA: GGAAGTTCTTTTGAACTTCC
modifications: 5'-phosphate
binding result (Af-PARP1 S241Q [2]): no binding

From PMC13507078, “The BRCT domain enhances DNA binding and catalytic efficiency of fungal PARPs”
